In patent publication US20090081786A1, “Peptide sequences for modulation of protein kinase C” (priority 2006, published 2009):

Target: annexin V endogenous in CHO-K1 cells (Homo sapiens (Human)) (UniProt P08758)
Test: co-immunoprecipitation from CHO cells stimulated with 10 nM PMA, FIG. 2

fold increase in the amount of complex after PMA stimulation (against before stimulation): 4 fold
Substance: δ-PKC endogenous in CHO-K1 cells (from UniProt P28867 1-674) (enzyme)
